Here are results for one substance from publication PMC3326337.

The Kd is the concentration at which binding is half-saturated. Read a low Kd as higher affinity.

For this series, the system named is Streptavidin. As to the kind of experiment: DRaCALA. As to conditions: 5'-biotin on one strand.

3x ICAP PCR probe with biotin had a Kd of 0.4 nM.
